Patent US20260159606A1 (VIB VZW, published 2026)

T1: hPIV-3 hemagglutinin-neuraminidase (HN), expressed on transfected HEK293T cells (human parainfluenza virus 3 (hPIV-3), UniProt P08492 1-572)
T1 chain: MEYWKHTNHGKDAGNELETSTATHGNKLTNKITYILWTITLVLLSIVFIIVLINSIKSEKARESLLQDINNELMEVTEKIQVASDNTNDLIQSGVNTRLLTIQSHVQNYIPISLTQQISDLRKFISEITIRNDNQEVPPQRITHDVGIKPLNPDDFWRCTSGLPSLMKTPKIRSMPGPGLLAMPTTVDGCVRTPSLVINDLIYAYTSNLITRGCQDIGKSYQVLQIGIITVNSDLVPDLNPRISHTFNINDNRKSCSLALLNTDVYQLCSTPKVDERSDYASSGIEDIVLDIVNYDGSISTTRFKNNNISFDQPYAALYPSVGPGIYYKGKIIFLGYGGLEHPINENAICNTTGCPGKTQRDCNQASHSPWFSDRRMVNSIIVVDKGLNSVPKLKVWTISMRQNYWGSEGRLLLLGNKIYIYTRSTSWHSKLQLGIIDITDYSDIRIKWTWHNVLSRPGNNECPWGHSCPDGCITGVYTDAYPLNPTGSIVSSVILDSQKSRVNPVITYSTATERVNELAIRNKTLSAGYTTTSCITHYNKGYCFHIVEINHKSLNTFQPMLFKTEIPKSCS

T2: D275N- and R277T-mutant hPIV-3 HN, expressed on transfected HEK293T cells (human parainfluenza virus 3 (hPIV-3), UniProt P08492 1-572)
T2 construct: also called mut HN3
T2 chain: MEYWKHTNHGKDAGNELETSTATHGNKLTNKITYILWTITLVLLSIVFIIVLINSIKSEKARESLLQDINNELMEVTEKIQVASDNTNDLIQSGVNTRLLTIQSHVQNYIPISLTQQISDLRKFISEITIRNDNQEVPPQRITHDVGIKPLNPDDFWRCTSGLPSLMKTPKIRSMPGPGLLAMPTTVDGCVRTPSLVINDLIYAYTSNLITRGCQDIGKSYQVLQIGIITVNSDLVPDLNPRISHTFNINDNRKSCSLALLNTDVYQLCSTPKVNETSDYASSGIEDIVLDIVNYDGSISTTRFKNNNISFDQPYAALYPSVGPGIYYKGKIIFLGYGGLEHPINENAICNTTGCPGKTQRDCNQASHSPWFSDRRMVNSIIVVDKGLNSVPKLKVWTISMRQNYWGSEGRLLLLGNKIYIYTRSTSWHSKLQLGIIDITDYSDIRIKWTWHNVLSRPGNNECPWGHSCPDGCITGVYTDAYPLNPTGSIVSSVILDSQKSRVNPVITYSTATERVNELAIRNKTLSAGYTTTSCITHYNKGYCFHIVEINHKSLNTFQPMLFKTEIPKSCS


What was measured:
[1] = target: T1, hPIV-3 hemagglutinin-neuraminidase …
[2] = target: T3, hPIV-3 fusion protein (F), expressed on transfected HEK293T cells (human parainfluenza virus 3 (hPIV-3), UniProt P06828 19-539); test: flow cytometry on transfected HEK293T cells (FIG. 4)
T3 construct: whole, on cells

[3] = target: T2, D275N- and R277T-mutant hPIV-3 HN, …; test: flow cytometry on transfected HEK293T cells, VHH 1 or 0.1 µg/ml (FIG. 11C)
[4] = target: T2, D275N- and R277T-mutant hPIV-3 HN, …; test: flow cytometry on transfected HEK293T cells (FIG. 11C)
[5] = target: T1, hPIV-3 hemagglutinin-neuraminidase …; test: flow cytometry on transfected HEK293T cells, 10 µg/ml (FIG. 16A)
[6] = target: T4, recombinant hPIV-1 HN-dGCN4 (human parainfluenza virus 1 (hPIV-1), UniProt P16071 138-575); test: ELISA, HN protein coated (50 ng), 1/3 dilution series (FIG. 18)
T4 construct: domain: head domain; also called hPIV-1 HN linked to dGCN4; not shown: strep-tag II

[7] = target: T5, recombinant hPIV-1 HN-tetraGCN4 (human parainfluenza virus 1 (hPIV-1), UniProt P16071 138-575); test: as above
T5 construct: domain: head domain; also called hPIV-1 HN linked to tetraGCN4; not shown: strep-tag II

[8] = target: T6, recombinant hPIV-3 HN-dGCN4 (human parainfluenza virus 3 (hPIV-3), UniProt P08492 136-572); test: as above
T6 construct: domain: head domain; also called hPIV-3 HN linked to dGCN4; not shown: strep-tag II

[9] = target: HN of hPIV-3-GFP virus (on virions and on hPIV-3-infected cells) (human parainfluenza virus 3 (hPIV-3), UniProt P08492 1-572); test: cell-based or functional assay

| Binder | fold reduction of binding at 500 µg/ml of zanamivir [1] [fold] | binding result [2] | binding result [3] | binding result [4] | binding result [5] | fold higher potency of hPIV-3-GFP neutralization than the monovalent counterpart [9] [fold] | further results |
| --- | --- | --- | --- | --- | --- | --- | --- |
| VHH A2R3-60 (VHH, also called 2AR3-60) VHH: QVQLQESGGGLVQPGGSLRLDCAASGTTVSINGMGWYRQAPGKQREFVALSTTGGVTNYADSVKGRFTISMDNAKKTVALQMNSLKPEDTAVYYCNAVASPSWGLYDDYWGQGTQVTVSS | 1.5 | no binding (tested: 1 µg/ml) | binds | – | – | – | – |
| VHH A2R3-57 (VHH, also called 2AR-57) VHH: QVQLQESGGGLVQPGGSLRLSCAASGSIFSTDAMGWYRQPPGKQRELVATITSGGSTNYVDSVKGRFTISRDNAKNTVYLQMNSLKPEDTAVYYCALHQTTGWGLYNDYWGQGTQVTVSS | ~5 | no binding (tested: 1 µg/ml) | – | no binding (tested: 1 or 0.1 µg/ml) | – | – | – |
| VHH A2R3-59 (VHH, also called 2AR3-59) VHH: QVQLQESGGGLVQPGGSLRLSCAASGSISGINGMGWYRQAPGKQRELVAAITSGGSTNYADSVKGRFTISRDNAKNTVDLQMNSLQPEDTAVYYCYVSSTPSWGLYDDYWGQGTQVTVSS | 2.4 | no binding (tested: 1 µg/ml) | binds | – | – | – | – |
| humanized A2R3-60-60 bivalent construct version 1 (VHH, also called A2R3-h60-60) DVQLVESGGGLVQPGGSLRLSCAASGTTVSINGMGWYRQAPGKQREFVALSTTGGVTNYADSVKGRFTISRDNAKNTVYLQMNSLRPEDTAVYYCNAVASPSWGLYDDYWGQGTLVTVSSGGGGSGGGGSGGGGSEVQLVESGGGLVQPGGSLRLSCAASGTTVSINGMGWYRQAPGKQREFVALSTTGGVTNYADSVKGRFTISRDNAKNTVYLQMNSLRPEDTAVYYCNAVASPSWGLYDDYWGQGTLVTVSS | – | – | – | – | binds | – | – |
| humanized A2R3-60-Fc construct version 1 (Fc fusion, also called A2R3-h60-Fc; h60-Fc) DVQLVESGGGLVQPGGSLRLSCAASGTTVSINGMGWYRQAPGKQREFVALSTTGGVTNYADSVKGRFTISRDNAKNTVYLQMNSLRPEDTAVYYCNAVASPSWGLYDDYWGQGTLVTVSSGGGGSGGGGSDKTHTCPPCPAPEAAGGPSVFLFPPKPKDTLMISRTPEVTCVVVDVSHEDPEVKFNWYVDGVEVHNAKTKPREEQYNSTYRVVSVLTVLHQDWLNGKEYKCKVSNKALGAPIEKTISKAKGQPREPQVYTLPPSRDELTKNQVSLTCLVKGFYPSDIAVEWESNGQPENNYKTTPPVLDSDGSFFLYSKLTVDKSRWQQGNVFSCSVMHEALHNHYTQKSLSLSPG | – | – | – | – | binds | – | EC50 [6]: 32 µg/mL; EC50 [7]: 71 µg/mL; EC50 [8]: 0.018 µg/mL |
| bivalent VHH A2R3-55 (VHH, also called bivalent A2R3-55) QVQLQESGGGLVQAGGSLRLSCAASGSIDRIDAMGWSRQAPGKQRELVATITTGGITNYAVSVKGRFTISRDNAKNTVYLQMNSLKPEDTAVYYCNAQGAPSWGLYEDYWGQGTQVTVSSGGGGSGGGGSGGGGSQVQLQESGGGLVQAGGSLRLSCAASGSIDRIDAMGWSRQAPGKQRELVATITTGGITNYAVSVKGRFTISRDNAKNTVYLQMNSLKPEDTAVYYCNAQGAPSWGLYEDYWGQGTQVTVSS | – | – | – | no binding (tested: 1 or 0.1 µg/ml) | – | ~50 | – |
| bivalent VHH A2R3-60-60 (VHH, also called bivalent A2R3-60) QVQLQESGGGLVQPGGSLRLDCAASGTTVSINGMGWYRQAPGKQREFVALSTTGGVTNYADSVKGRFTISMDNAKKTVALQMNSLKPEDTAVYYCNAVASPSWGLYDDYWGQGTQVTVSSGGGGSGGGGSGGGGSQVQLQESGGGLVQPGGSLRLDCAASGTTVSINGMGWYRQAPGKQREFVALSTTGGVTNYADSVKGRFTISMDNAKKTVALQMNSLKPEDTAVYYCNAVASPSWGLYDDYWGQGTQVTVSS | – | – | binds | – | binds | ~7.5 | EC50 [6]: 167 µg/mL; EC50 [7]: 50 µg/mL; EC50 [8]: 0.02 µg/mL |
| humanized A2R3-59-Fc construct version 1 (Fc fusion, also called h59-Fc; A2R3-h59-Fc) DVQLVESGGGLVQPGGSLRLSCAASGSISGINGMGWYRQAPGKQRELVAAITSGGSTNYADSVKGRFTISRDNAKNTVYLQMNSLRPEDTAVYYCYVSSTPSWGLYDDYWGQGTLVTVSSGGGGSGGGGSDKTHTCPPCPAPEAAGGPSVFLFPPKPKDTLMISRTPEVTCVVVDVSHEDPEVKFNWYVDGVEVHNAKTKPREEQYNSTYRVVSVLTVLHQDWLNGKEYKCKVSNKALGAPIEKTISKAKGQPREPQVYTLPPSRDELTKNQVSLTCLVKGFYPSDIAVEWESNGQPENNYKTTPPVLDSDGSFFLYSKLTVDKSRWQQGNVFSCSVMHEALHNHYTQKSLSLSPG | – | – | – | – | binds | – | – |
| humanized A2R3-59-59 bivalent construct version 1 (VHH, also called A2R3-h59-59) DVQLVESGGGLVQPGGSLRLSCAASGSISGINGMGWYRQAPGKQRELVAAITSGGSTNYADSVKGRFTISRDNAKNTVYLQMNSLRPEDTAVYYCYVSSTPSWGLYDDYWGQGTLVTVSSGGGGSGGGGSGGGGSEVQLVESGGGLVQPGGSLRLSCAASGSISGINGMGWYRQAPGKQRELVAAITSGGSTNYADSVKGRFTISRDNAKNTVYLQMNSLRPEDTAVYYCYVSSTPSWGLYDDYWGQGTLVTVSS | – | – | – | – | binds | – | – |
| bivalent VHH A2R3-57-57 (VHH, also called bivalent A2R3-57) QVQLQESGGGLVQPGGSLRLSCAASGSIFSTDAMGWYRQPPGKQRELVATITSGGSTNYVDSVKGRFTISRDNAKNTVYLQMNSLKPEDTAVYYCALHQTTGWGLYNDYWGQGTQVTVSSGGGGSGGGGSGGGGSQVQLQESGGGLVQPGGSLRLSCAASGSIFSTDAMGWYRQPPGKQRELVATITSGGSTNYVDSVKGRFTISRDNAKNTVYLQMNSLKPEDTAVYYCALHQTTGWGLYNDYWGQGTQVTVSS | – | – | – | no binding (tested: 1 or 0.1 µg/ml) | – | ~150 | – |
